Test results published in paper PMC5023729.

Legend:
[1] = biological target: F380L/F382L double mutant G3BP1 (human) (UniProt Q13283)
[2] = biological target: FLAG-G3BP1 (human, wild type) (human) (UniProt Q13283)

| percentage of cells with SOD1 inclusions in which G3BP1 co-localizes (EGFP-tagged SOD1 and mCherry-tagged G3BP1 in G3BP1-null 293T cells) [1] | percentage of cells with SOD1 inclusions in which G3BP1 co-localizes (EGFP-tagged SOD1 and mCherry-tagged G3BP1 in G3BP1-null 293T cells) [2] | Substance |
| --- | --- | --- |
| 14.7% | 49.1% | A4V/W32S double mutant SOD1 (natural protein) |
| 36.1% | 86.6% | A4V mutant SOD1-3xHA (natural protein) |
